Data published in the DeepSol protein solubility set.

Experiment: soluble on expression in E. coli; label from the status in PepcDB or PDB records

| Sequence | soluble on expression in E. coli |
| --- | --- |
| AAYEAELLGRVGLMSHLTRRLHESAKLNPHRVIYAACENPSVLKAAVSARAHGIARPIMLGDEKQIRDFAAELDLSLEGIEIVNYRSDEEKARRHHYARVFAEQNWRRGGNHTEALDKMFDPNYFGMMMVRLGDADAMITGIYSKHSYLAEVAKQTVGLQEGVGHFATMHMVSLKNGPLFLADTLINHNLSAEALVDIAVMAYEKAHCFGVKPVLAIVGFSDFGADSDADSTVEAAKAVAILHEKYPYILVDGEMRVSLALHAEKRDKQYPQNKIKGRNANVLIFPRLSAANACYQLLREADDAEEVLGPIQIGLAKPVYFADHDATVSDILNITAMAVLDSHACLI | soluble |
| GPGSMMREAGRQRRRNADSDESSSEDEQQQTTTTVQETTAAAPPARVRAKAPAAAVVSAPSMTLHADPTATQVTAPSAVSAETADSEGGSNEDAPSSAAAAAPPNEFSEEMEAIDYDALTYAALLDIMNRASRPVIEELMAQREQQVESTMQQQQNQRVERFLDVATTSSATAAEANGSSAEEEAAEGYRYNTMLTRLFEALNRNNEGSAMTERNQLPVPILERMGKKKTVIANFGRICDAFHRPMEDVKDFIEKELSIRGNLDSNNALILKFEIRKQTDFDRVLIKYLDEYVKCNSCHRIDTTLTKDGRRLELRCNVCTATRTVTAAGTATFSAQIEKRSRQRAAMIL | soluble |
| MGSDKIHHHHHHMNNINDSSAIHITPETFVKQIRSLGRYNFPEPALVDPDGIGIVGIGGNLAPETLISAYAQGLFPWFNDDEPIAWWCPEPRCVMQPTDYQPSKSLRKQANNARWQLTLNQAFNEVIHACSLPRSNGLPEGEHTWIHDDMIEAYNELHAQGFAHSVEVWDDQGQLVGGLYGLKIGSIYFGESMFHIASNASKLAFWGLMRLCTQSNVTLVDCQLPNEHLMSLGAITLSRTEFLTQLDTLISNGSDAWHKNSHRPLAVSLLGNLQPWQLNP | not soluble |
| MYMKHIENGTRIEGEYIKNKVIQYNMSILTDEVKQPMEEVSLVVKNEEGKIFGGVTGTMYFYHLHIDFLWVDESVRHDGYGSQLLHEIEGIAKEKGCRLILLDSFSFQAPEFYKKHGYREYGVVEDHPKGHSQHFFEKRL | soluble |
| MGSDKIHHHHHHAAPSPDAQRVAAYAASHFQQAQIDTLKTLVGYDTRARDGLTPDTDPVFADFKRALGVKARMLGLDVEDNGYVMLISLSPEGAGTDVKKVGVITHGDVQPADPSLWPQSPYELTETADGRLVGRGAEDDKGPIATALYAMKAIKDSGIVLKRRIELLVYMAEESDWEPLKDFLKTYEPADINITLDAEYPVVTGEKGWSQIKLSLPRVMVKVGADTPVLTYFSGGSFASQIPQQASAVIQNTNPELVAALKARAKTLPIKTDFIDEPQGLTIHATGKAAHSSTPEDGINAVAYLAELLSPTADGGIPEWPMTTAAVTVDFLHSLVGTGLYGERFGKLGYSDEFMGPMTLAPTLITEGKEGTDVTLNLRRPVGRTPEALDKLAIAAIHGWQDARGTQVADIETYWGTPMLIDDAPHLETLLGVFGHYTNTAGPKPIAIGGSTNAKLFPNALSFGPAMPGMEYTGHSEYEFITRDQLKLNLEMYTAALVELAMRE | not soluble |
| MGHHHHHHSHSEVAIKIDFDFAPGSFDDQYQGCSKQVMEKLTQGDYFTKDIEAQKNYFRMWQKAHLAWLNQGKVLPQNMTTTHAVAILFYTLNSNVHSDFTRAMASVARTPQQYERSFHFKYLHYYLTSAIQLLRKDSIMENGTLCYEVHYRTKDVHFNAYTGATIRFGQFLSTSLLKEEAQEFGNQTLFTIFTCLGAPVQYFSLKKEVLIPPYELFKVINMSYHPRGNWLQLRSTGNLSTYNCQLLKASSKKCIPDPIAIASLSFLTSVIIFSKSRV | not soluble |
| VGEKITKMKEESHKTKQTKTEDPITKETYQARQRTLLQRDYLLVHIEDLLPKQVFAVSVINDYLVCIQAQGLEPMSDVGLLGKHQFYLRTYHYFV | not soluble |
| MGHHHHHHGGHMSLTTSTPSNRILVVMSSAAQIPLQDGKNHNTGYFLNEFGVPAKRLTDAGYELVIATPRGSVPGMDHNSDHDMFFKNKEEHNEIKAFVGDVLSNTTIQTTEAVAAEGTQAYAALFLPGGHAPMADLMADPALGEILRQFHAAAKPTALICHAPTALLAAQADPVAFQKGMEAGEQPSAQDFTYQGYRVTVFANDEEEATEKTFEAPMLYYPADALTQGGAQVENGEAMKPNVVRDRELLTGQNPFSDEPFVAQLLEMLGEGGS | soluble |
| MESYSQRQDHELQALEAIYGSDFQDLRPDARGRVREPPEINLVLYPQGLAGEEVYVQVELRVKCPPTYPDVVPEIDLKNAKGLSNESVNLLKSHLEELAKKQCGEVMIFELAHHVQSFLSEHNK | soluble |
| MGSDKIHHHHHHMNEKTSVSSDRRDFWDGRAREFSEHAASTGYPRAFLRILKPRKSWTVLDMACGGGTIAIPLANRVKFITAVDFSMRMLEIVEQRCLAGKITNVKTLQGRWEDDWDDLGIGVHDVAIASRSLLSETAMDSIAKLNRAATKAVYISVAVGSGPFDWRLLEAADRERNTRPDYIFYYNLLYEMGIPANVSFIPESYRNSWESHEEAFEDQLWMFQGMTGEEEEKVRAYLREHLVWVKGHWQLPYSRNYYWAVLYWTKDREIGS | not soluble |
| MNNNNKAKTLITQLEQEINWVEELNTLLSEEKEILSTSQFNQLETLAEKKQELSTKLEASAKQRVDLIKESNPGDKPHGLLLSDFLKNCATEDGIQINHLNNTLAERLNLCRELNTINGQVIANNMYTRQQIVNALSGNKSDAVSVYTSNGNLETPSESSHHEEA | soluble |
| MLTMRICLRATYTQKEYKWESTVNEQISAASLYDRVARVIPKAEWMGFQDDVEAILELKRKRNAVILAHNYQTPEIFHGVADIVGDSLALARKAMEVEADVIVLAGVHFMAETAKLLNPEKTVLIPDMAAGCSLADSITPEDIALLRKAYPGVPVVTYVNTSAAVKAASDICCTSGNARQVVESLGVPRVLMLPDEYLAKNVAKETSVELIAWRGHCEVHELFTADDIRELRESHPGVIVLAHPECPPEVVDAADFSGSTAVMSDYVGRERPARVVLLTECSMSDNVAVHHPDVEFIRPCNLCPHMKRITLGNIRTALEENRHEVTVDPAIAGAARRAVERMLQIMAGDPLEHHHHHH | not soluble |
| MNIDSDIFKIQSNNVLPSRGKILISEPFLRDATFGRSVVLLIDHTEEGSMGLIINKQLPIFVNDIIKEFKYIENIPLYKGGPIATDTLFYLHTLADIPGAIPISKGLYLNGDFDEIKKYILQGNKVDRYIRFFLGYSGWESEQLSTELKENTWLVSKEENAYLMNGDTKDMWKQALEKLGSKYETWSRFPQVPTFN | not soluble |
| ENVYGYLMKYTNLVTGWQYRFFVLNNEAGLLEYFVNEQSRNQKPRGTLQLAGAVISPSDEDSHTFTVNAASGEQYKLRATDAKERQHWVSRLQICTQHHTEAIGKNN | soluble |
| EAAYSHTPLIMVSADRPERLHGTGANQTIEQRGIFNVVDTDHVVDITDLNSISFARNVIHINVALDVPLVDVLPEVGDPVERVREVIEVDHGEVVLNLNERILVVAGDEAWEVPGLEDVPTIAEPSAPAPYHPVHPLAAQIFAHKEIKPEHIVVVGHPTLHRAVLSLLADVPVTVLTKTDTITGNPQAVGSRVKVTGELDKRWLQICEDASTLCADRVKEVLEGH | not soluble |
| MSLDKNRTMLLIVDINKGFAKEGALYSDRIEKLISPISNLANYALNSGIRVKAFTDYHTEDSIELKAYPKHCMKDTDEWELVDELNLEGIEVIKKNSTNGFLEENFILNKEEIDNVIIVGDCTDICIYQLAISLRAEFNRVNKDGEIYVPKKLVDTFDMPMHKANFMNYVFLNSMLDNGVKVIEDIILDEGHHHHHH | not soluble |
| DYVGGCLDFRPEEGIFRIARDMFTEPELFDLEMELIFEKNWIYACHESELARPHDFVTLRAGRQPLIVTRDGNGQLHALVNACQHRGATLVRVGKGNQSTFTCPFHAWCYKNDGRLVKVKAPGEYPEGFDKATRGLKKARIQSYRGFVFVSLDVAGEDDLVDFLGDARVFLDMLVAQSPSGELEVLPGTSTYTYEGNWKLQNENGLDGYHVSTVHYNYVATVQHRQQVEAERGGVAATLDYSKLGAGDAATDDGWFSFANGHSVLFSEMPNPAVRPGYASVMPRLVAEYGQARAEWMMHRLRNLNLYPSLFVIDQISSQLRIVRPLAWNRTEIVSQCIGVKGESDADRENRIRQFEDFFNVSGMGTPDDLVEFREAQRGFQARLERWSDISRGHGKWLEGATPNSQALGIAPLLTGTEITHEGLYVNQHAHWRRFLLDGLERLALRA | not soluble |
| HHHHHHSKEELLKLTETVVTEYLNSGNANEAVNGVREMRAPKHFLPEMLSKVIILSLDRSDEDKEKASSLISLLKQEGIATSDNFMQAFLNVLDQCPKLEVDIPLVKSYLAQFAARAIISELVSISELAQPLESGTHFPLFLLCLQQLAKLQDREWLTELFQQSKVNMQKMLPEIDQNKDRMLEILEGKGLSFLFPLLKLEKELLKQIKLDPSPQTIYKWIKDNISPKLHVDKGFVNILMTSFLQYISSEVNPPSDETDSSSAPSKEQLEQEKQLLLSFKPVMQKFLHDHVDLQVSALYALQVHCYNSNFPKGMLLRFFVHFYDMEIIEEEAFLAWKEDITQEFPGKGKALFQVNQWLTWLETA | soluble |
| MGSSHHHHHHSSGRENLYFQGMVDADGIYYLGPEGSFTHEAASLFKGKDLKAESTISLVFKRVYERESSIGIVPIENSLEGPVNETLDNLYNYDNIYVIGEIEKKIELVLAARSDNLSQIKRIYSHPHAFNEAREKLKELGFNEYIPVESTSKAAKIVSQDSEAAAICSNFAAKLYNLKVLITISSHNNYTRFIVLSKEMNSNGNKSMILFTVPHKPGALYKVLQVFYEYNINISMIYSRPLKSIPWQYYFYLEYEGGISNREFIEKLVKSTSVLKIKGSFSKLNNDPGF | soluble |
| MSQYGFVRVPREVEKAIPVVNAPRPRAVVPPPNSETARLVREYAAKELTAPVLNHSLRVFQYSVAIIRDQFPAWDLDQEVLYVTCLLHDIATTDKNMRATKMSFEYYGGILSRELVFNATGGNQDYADAVTEAIIRHQDLTGTGYITTLGLILQIATTLDNVGSNTDLIHIDTVSAINEQFPRLHWLSCFATVVDTENSRKPWGHTSSLGDDFSKKVICNTFGYN | not soluble |
| SLNEVQQAVDMQRRQLLQRLGKDFDPSMLDDKLLKEAALKGLIERTLLLQAAKDDKFAFSDQALDQLILQTPEFQVDGKFNADRFDQVIRQMNYSRMQFRQMLGQEMLIGQLRAGLAGTGFVTDNELQSFARLEKQTRDFATLAIKADASKSSVSDDEVKAFYEGHKSEFMTPEQVVVEYVELKKSSFFDQVKVKQEDLEALYQKEIANLSEQRDAAHILIEVNDKVGDEQAKAKIDEIKARLAKGEDFAALAKEFSQDIGSAATGGDLGYAGRGVYDPAFEEALYALKQGEVSAPVKTPYGYHLIKLLGVQAPEVPSLESLKPKLEDELKKQMVEQRFVEATKDLESSAYEAADLSQPAQEMGLKVQTSQPFGRSGGDGIAANRQIVQTAFSAEVLEEAANSGAIELDPDTVVVLRVKEHNKPKEQPLEQVAANIRERLAAEKAAEEAQKRGEALIAELREGRTSSAAGESWKVVEAASRGHEGVDPKLLQAVFRMQRPEAKDKPSFSGVTLANGDYVVIRLNGVSEPEEAISDDEKAMYRRFLASRSGQADFAAFRRQLQD | not soluble |
| MGHHHHHHSHMAICQFFLQGRCRFGDRCWNEHPGARGAGGGRQQPQQQPSGNNRRGWNTTSQRYSNVIQPSSFSKSTPWGGSRDQEKPYFSSFDSGASTNRKEGFGLSENPFASLSPDEQKDEKKLLEGIVKDMEVWESSGQWMFSVYSPVKKKPNISGFTDISPEELRLEYHNFLTSNNLQSYLNSVQRLINQWRNRVNELKSLNISTKVALKCLWKIYTHLSPKIYGPDCAL | not soluble |
| MSIIFNQRIEIIRAGEKRSVYSSDVMEDWDNPVVLPVEVPVSIQPVSSTESDATANRSYVTSRFRLFSPPGIDIPQLKAKDRVRIGLLVLDVVGDPARWPHPLKPATVHHVEADLEVHRG | not soluble |
